Changes are numbered by the printed parent chain.
T1: rat Trop-2 (rat, UniProt Q6P9Z6 25-270, limits assumed)
T1 sequence (looked up): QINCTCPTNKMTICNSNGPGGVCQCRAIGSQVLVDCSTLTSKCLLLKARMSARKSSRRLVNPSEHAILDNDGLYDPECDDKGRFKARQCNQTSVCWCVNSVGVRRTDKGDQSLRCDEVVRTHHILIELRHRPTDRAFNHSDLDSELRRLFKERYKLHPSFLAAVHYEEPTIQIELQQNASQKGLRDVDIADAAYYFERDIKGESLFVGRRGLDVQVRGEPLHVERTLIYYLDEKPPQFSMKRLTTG

T2: human Trop-2 expressed on cell surface (human, UniProt P09758 27-323)
T2 sequence (looked up): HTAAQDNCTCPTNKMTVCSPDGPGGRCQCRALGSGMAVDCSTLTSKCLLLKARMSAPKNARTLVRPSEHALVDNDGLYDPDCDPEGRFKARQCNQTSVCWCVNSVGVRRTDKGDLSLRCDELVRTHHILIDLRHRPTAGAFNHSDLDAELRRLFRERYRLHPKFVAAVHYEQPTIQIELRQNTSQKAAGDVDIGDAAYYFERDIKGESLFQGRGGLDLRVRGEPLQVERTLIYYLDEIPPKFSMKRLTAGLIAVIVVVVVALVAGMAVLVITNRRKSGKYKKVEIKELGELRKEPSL

T3: cynomolgus Trop-2-His protein (cynomolgus, UniProt P09758 27-274 (human entry))
T3 construct: also called cynmolgus Trop-His; Kactus Cat #TRP-CM121; not shown: His tag
T3 chain: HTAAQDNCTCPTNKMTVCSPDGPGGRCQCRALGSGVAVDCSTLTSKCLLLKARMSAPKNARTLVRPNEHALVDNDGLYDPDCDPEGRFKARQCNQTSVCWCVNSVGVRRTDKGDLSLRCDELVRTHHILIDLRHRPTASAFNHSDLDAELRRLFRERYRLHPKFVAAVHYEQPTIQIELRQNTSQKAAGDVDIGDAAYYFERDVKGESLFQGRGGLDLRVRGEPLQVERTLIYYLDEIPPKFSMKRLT

B1: 74F11/15F5 (antibody, human IgG1, V domains shown)
VH: QEQLKESGGGLVQPGGSLKLSCKASGFDFNNYGMSWVRQAPGKGLEWIAYIYPAFHNTYYANWVNGRFTISSDNAQNTVDLQLNSLTAADTATYFCARDAGSTDYNFNLWGPGTLVTVSS
VL: DVVMTQTPASVEAAVGGTVTIKCQASEDIERYLAWYQQKPGQPPKLLIYEASKLPSGVSSRFSGSGYGTEFTLTISGVECADAATYYCQQALTIGYVDNPFGGGSEVVVK
notes: LEM construct: VH + rabbit IgG CH1 + human IgG1 CH2-CH3
B2: 66A1 (antibody, V domains shown)
VH: B1 VH with M34V, N62S, D73H, V79L, D80Y, S102G, N106A, F107Y
VL: DVVMTQTPASVEAAVGGTVSINCQASEDIESYLAWYQQKPGQPPKLLIYKASTLASGVSSRFKGSGSGKQFTLTISGVECADAATYYCQQVLTIGNVDNPFGGGSEVVVK
notes: Rabbit-derived clone; LEM construct: VH + rabbit IgG CH1 + human IgG1 CH2-CH3
B3: 63H3 (antibody, V domains shown)
VH: B1 VH with N31S, M34V, T58A, S102G, F107Y
VL: B1 VL with A13V, I21L, R31S, L33S, K45N, P55A, Y96N, K110R
notes: as for B2
B4: 65D5 (antibody, V domains shown)
VH: B1 VH with N31A, M34V, N62T, D73H, V79L, D80Y, S85T, S102T
VL: DIVMTQTPASVSEPVGGTVTIKCQASQSISSYLAWYQQKPGQPPKLLIYEATKLTSGVSSRFSGSGYGTEFTLTISGVECADAATYYCQQALTVGDVDNPFGGGSEVVVK
notes: as for B2
B5: 10A9 (antibody, V domains shown)
VH: QSLEESGGDLVQPGASLTLTCKASGFDLNNYAMLWVRQAPGKGLEWIGCIYISGGTTYFASWATGRFAISKTSSTTVTLQMTSLTAADTATYFCARDDGTTSYYLNLWGPGTLVTVSS
VL: YDMTQTPASVSAAVGGTVTIKCQASEDIYSLLAWYQQKPGQPPKLLIYGASNLESGVPSRFKGSGSGTEYTLTISDLECDDAATYYCQQAYTIGNIDNAFGGGTEVVVK
notes: as for B2
B6: 5D4 (antibody, V domains shown)
VH: QQLEESGGGLVKPEGSLTLTCKGSGFDFSGTYWMWWVRQAPGKGLEWIACIYVGSGSSTYYASWAKGRFTISSTSSTAVTLQATSLTAADTATYFCARGATNNVFMNYFNLWGPGTLVTVSS
VL: FEMTQTPSSVSEPVGGTVTIKCQASEDISSNLGWYQQKPGQPPKLLIYGASTLASGVPSRFKGSGSGTEFTLTISDLECADAATYYCQTSYYIDDGVNGFGGGTEVVVK
notes: as for B2

The binders below were run against T1, rat Trop-2 (assay: ELISA, similar to Table 24).

Row | binding result | Binder
1 | no binding | B1
2 | no binding | B2
3 | no binding | B3
4 | no binding | B4
5 | no binding | B5
6 | no binding | B6

What follows are binders tested against T2, human Trop-2 expressed on cell surface (assay: cell-based or functional assay).

Row | Internalization %, MDA-MB-231, 0.25 µg/ml, 2 h [%] | Internalization %, MDA-MB-231, 0.25 µg/ml, 4 h [%] | Internalization %, MDA-MB-231, 0.5 µg/ml, 2 h [%] | Internalization %, MDA-MB-231, 0.5 µg/ml, 4 h [%] | Internalization %, MDA-MB-231, 1 µg/ml, 2 h [%] | Internalization %, MDA-MB-231, 1 µg/ml, 4 h [%] | Internalization %, MDA-MB-231, 2 µg/ml, 2 h [%] | Internalization %, MDA-MB-231, 2 µg/ml, 4 h [%] | Binder
7 | 42 | 52 | 37 | 45 | 42 | 48 | 39 | 46 | B1
8 | 45 | 51 | 46 | 50 | 39 | 49 | 36 | 43 | B2
9 | 40 | 48 | 39 | 45 | 38 | 49 | 37 | 39 | B3
10 | 34 | 51 | 43 | 51 | 37 | 48 | 31 | 41 | B4
11 | 54 | 57 | 47 | 53 | 40 | 55 | 38 | 49 | B5
12 | 56 | 65 | 49 | 66 | 65 | 51 | 60 | 66 | B6

The binders below were run against T2, human Trop-2 expressed on cell surface (assay: flow cytometry, MCF-7 cells).
Protocol: (§1) Cells were then resuspended in FACS buffer (1×DPBS/1% FBS) at 10⁶/ml concentration. One hundred microliter (100 μl) of cells were aliquoted into a single well in 96 well plates. The antibodies to be tested were serially diluted at 1:3 fold starting at 15 μg/mL and were then added into each well. The antibodies were mixed with cells and the mixtures were incubated on ice for 1 hour. After washing with FACS buffer, one hundred microliter (100 μl) of 1:400 diluted PE-conjugated anti-human Fc secondary antibody (Jackson Immuno Research) was added into each well and incubated for 30 minutes on ice. After washing with FACS buffer, stained cells were resuspended at diluted 7-ADD (Biolegend, used at 1:100 dilution) and analyzed on Guava 11HT or 5HT (Luminex). Data was analyzed using Flowjo software. EC₅₀ values were calculated using GraphPad Prism. Sacitnzurnab govitecan was used as positive control. Anti-HEL.hIgG1 was used as isotype negative control. Similar assay was performed using MCF-7 cells (known to express human Trop-2).

Row | EC50 [nM] | Binder
13 | 0.9 | B1
14 | 0.6 | B2
15 | 0.6 | B3
16 | 0.8 | B4
17 | 1.4 | B5
18 | 1.2 | B6

The binders below were run against T2, human Trop-2 expressed on cell surface (assay: flow cytometry, MDA-MB-231-GFP cells).
Protocol: as §1

Row | EC50 [nM] | Binder
19 | 0.02 | B1
20 | 0.01 | B2
21 | 0.02 | B3
22 | 0.01 | B4
23 | 0.04 | B5
24 | 0.01 | B6

Target: T3, cynomolgus Trop-2-His protein
Test: BLI (Gator Prime), LEM supernatant Ab on HFC probe
Method in brief: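 Antibodies from LEM transfection supernatants were diluted 1:1 in K buffer and captured on HFC probes. Association and dissociation of human or cynomolgus Trop-2-His were then followed by BLI, with blank reference subtraction and affinity from kinetic fitting. Sacituzumab govitecan at 1 μg/ml served as positive control.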

Row | Kd [nM] | koff [s⁻¹] | kon [M⁻¹ s⁻¹] | Binder
25 | 0.264 | 0.00017 | 758000 | B1
26 | 0.367 | 0.00032 | 869000 | B2
27 | 0.218 | 0.00016 | 740000 | B3
28 | 0.628 | 0.00061 | 972000 | B4
29 | 0.108 | 5.3e-05 | 569000 | B5
30 | 0.256 | 0.0001 | 577000 | B6

— patent US20250206841A1 (ADEPT THERAPEUTICS, published 2025)
